Assay results: US20260049138A1 (Chugai, published 2026)
Changes are numbered by the printed parent chain. Numbers in names are those of the source.

B1: CE115HA000 A32Y one-arm antibody (antibody, human IgG1, kappa, L234A L235A, N297A, name in Kabat numbering)
heavy: QVQLVESGGGVVQPGRSLRLSCAASGFTFSNYWMHWVRQAPGKGLEWVAQIKAKSNNYATYYAESVKGRFTISRDDSKNSLYLQMNSLKTEDTAVYYCRYVHYGAYYGVDAWGQGTTVTVSSASTKGPSVFPLAPSSKSTSGGTAALGCLVKDYFPEPVTVSWNSGALTSGVHTFPAVLQSSGLYSLSSVVTVPSSSLGTQTYICNVNHKPSNTKVDKKVEPKSCDKTHTCPPCPAPEAAGGPSVFLFPPKPKDTLMISRTPEVTCVVVDVSHEDPEVKFNWYVDGVEVHNAKTKPREEQYASTYRVVSVLTVLHQDWLNGKEYKCKVSNKALPAPIEKTISKAKGQPREPQVYTLPPSRCELTKNQVSLSCAVKGFYPSDIAVEWESNGQPENNYKTTPPVLDSDGSFFLVSKLTVDKSRWQQGNVFSCSVMHEALHNHYTQKSLSLSPDYKDDDDK
chain: EPKSSDKTHTCPPCPAPELLGGPSVFLFPPKPKDTLMISRTPEVTCVVVDVSHEDPEVKFNWYVDGVEVHNAKTKPREEQYNSTYRVVSVLTVLHQDWLNGKEYKCKVSNKALPAPIEKTISKAKGQPREPQVCTLPPSRDELTKNQVSLWCLVKGFYPSDIAVEWESNGQPENNYKTTPPVLDSDGSFFLYSKLTVDKSRWQQGNVFSCSVMHEALHNRYTQKSLSLSP
light: DIVMTQSPLSLPVTPGEPASISCRSSQSLVHSNRNTYLHWYQQKPGQAPRLLIYKVSNRFSGVPDRFSGSGSGTDFTLKISRVEAEDVGVYYCGQGTQVPYTFGQGTKLEIKRTVAAPSVFIFPPSDEQLKSGTASVVCLLNNFYPREAKVQWKVDNALQSGNSQESVTEQDSKDSTYSLSSTLTLSKADYEKHKVYACEVTHQGLSSPVTKSFNRGEC
B2: CE115HA000 A52aD one-arm antibody (antibody, human IgG1, kappa, L234A L235A, N297A, name in Kabat numbering)
heavy: B1 heavy with Y32A, A53D
chain: B1 chain
light: B1 light
B3: CE115HA000 A52aE one-arm antibody (antibody, human IgG1, kappa, L234A L235A, N297A, name in Kabat numbering)
heavy: B1 heavy with Y32A, A53E
chain: B1 chain
light: B1 light
B4: CE115HA000 A52aY one-arm antibody (antibody, human IgG1, kappa, L234A L235A, N297A, name in Kabat numbering)
heavy: B1 heavy with Y32A, A53Y
chain: B1 chain
light: B1 light
B5: CE115HA000 A56D one-arm antibody (antibody, human IgG1, kappa, L234A L235A, N297A, name in Kabat numbering)
heavy: B1 heavy with Y32A, A59D
chain: B1 chain
light: B1 light
B6: CE115HA000 A52aS one-arm antibody (antibody, human IgG1, kappa, L234A L235A, N297A, name in Kabat numbering)
heavy: B1 heavy with Y32A, A53S
chain: B1 chain
light: B1 light
B7: CE115HA000 A52aG one-arm antibody (antibody, human IgG1, kappa, L234A L235A, N297A, name in Kabat numbering)
heavy: B1 heavy with Y32A, A53G
chain: B1 chain
light: B1 light
B8: CE115HA000 A52aP one-arm antibody (antibody, human IgG1, kappa, L234A L235A, N297A, name in Kabat numbering)
heavy: B1 heavy with Y32A, A53P
chain: B1 chain
light: B1 light
B9: CE115HA000 A56G one-arm antibody (antibody, human IgG1, kappa, L234A L235A, N297A, name in Kabat numbering)
heavy: B1 heavy with Y32A, A59G
chain: B1 chain
light: B1 light
B10: CE115HA000 A52aV one-arm antibody (antibody, human IgG1, kappa, L234A L235A, N297A, name in Kabat numbering)
heavy: B1 heavy with Y32A, A53V
chain: B1 chain
light: B1 light

Biological target: T1, CD3ε homodimer protein (human, UniProt P07766 23-126, limits assumed, sulfo-tag or biotin label in the ECL assays; amine-coupled to the chip in SPR)
T1 construct: also called human CD3ε homodimer protein; CD3 (CD3ε)
Experiment: SPR Biacore T200; CD3ε homodimer on CM4 chip;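 also: Single-residue variant antibodies injected as analyte over CD3ε homodimer immobilized by amine coupling, run at 25 °C in HBS-EP+ buffer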

T1 sequence (P07766 23-126 limits assumed): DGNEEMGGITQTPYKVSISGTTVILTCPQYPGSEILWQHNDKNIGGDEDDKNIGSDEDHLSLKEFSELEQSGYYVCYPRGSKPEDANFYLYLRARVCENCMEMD

ratio of amounts bound Z=Y/X (altered form / CE115HA000) | Binder
0.33 | B1
1.34 | B2
0.57 | B3
0.31 | B4
0.51 | B5
1.05 | B6
0.81 | B7
0.15 | B8
0.61 | B9
0.52 | B10
